# Assay results reported in US20220281976A1 (Alector, published 2022).
# Numbering of substitutions follows the chain as printed.
# T1: mouse CD33 Fc fusion protein (mouse, UniProt Q63994 18-240, limits assumed)
# T1 construct: also called mCD33-Fc
# T1 sequence: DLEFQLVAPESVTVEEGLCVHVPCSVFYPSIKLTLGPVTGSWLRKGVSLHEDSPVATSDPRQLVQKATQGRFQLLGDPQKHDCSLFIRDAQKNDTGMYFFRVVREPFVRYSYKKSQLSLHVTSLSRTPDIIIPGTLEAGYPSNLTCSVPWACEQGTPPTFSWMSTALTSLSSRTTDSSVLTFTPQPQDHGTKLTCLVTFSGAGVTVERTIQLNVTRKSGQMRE
# B1: C-89 (antibody, V domains shown)
# VH: QLQLQESGPGLVKPSETLSLTCTVSGGSISSSSYYWGWIRQPPGKGLEWIGSIYYSGSTYYNPSLKSRVTISVDTSKNQFSLKLSSVTAADTAVYYCAREGPRFDPWGQGTLVTVSS
# VL: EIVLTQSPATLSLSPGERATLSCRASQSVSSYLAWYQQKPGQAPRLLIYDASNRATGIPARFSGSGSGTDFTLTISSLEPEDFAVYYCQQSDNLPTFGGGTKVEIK
# notes: human IgG1
# B2: C-8 (antibody, V domains shown)
# VH: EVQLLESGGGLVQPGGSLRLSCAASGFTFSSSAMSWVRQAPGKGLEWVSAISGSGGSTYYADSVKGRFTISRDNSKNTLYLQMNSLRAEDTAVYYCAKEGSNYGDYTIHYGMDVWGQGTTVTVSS
# VL: EIVLTQSPGTLSLSPGERATLSCRASQSVSSSFLAWYQQKPGQAPRLLIYGASSRATGIPDRFSGSGSGTDFTLTISRLEPEDFAVYYCQQVASPPPTFGGGTKVEIK
# notes: human IgG1
# B3: C-88 (antibody, V domains shown)
# VH: QLQLQESGPGLVKPSETLSLTCTVSGGSISSSSYYWGWIRQPPGKGLEWIGSIYYSGSTYYNPSLKSRVTISVDTSKNQFSLKLSSVTAADTAVYYCARLPIYYDSSGYFDYHGMDVWGQGTTVTVSS
# VL: EIVLTQSPATLSLSPGERATLSCRASQSVSSYLAWYQQKPGQAPRLLIYDASNRATGIPARFSGSGSGTDFTLTISSLEPEDFAVYYCQQHANHPPTFGGGTKVEIK
# notes: human IgG1
# B4: C-90 (antibody, V domains shown)
# VH: EVQLVESGGGLVQPGGSLRLSCAASGFTFSSYWMSWVRQAPGKGLEWVANINQDGSEKYYVDSVKGRFTISRDNAKNSLYLQMNSLRAEDTAVYYCAREAGAVTGYRWFDPWGQGTLVTVSS
# VL: DIQMTQSPSSLSASVGDRVTITCRASQSISSYLNWYQQKPGKAPKLLIYGASSLQSGVPSRFSGSGSGTDFTLTISSLQPEDFATYYCQQQYLTPLTFGGGTKVEIK
# notes: human IgG1
# B5: C-91 (antibody, V domains shown)
# VH: EVQLVESGGGLVQPGGSLRLSCAASGFTFSSYWMSWVRQAPGKGLEWVANIKSDGSEKYYVDSVKGRFTISRDNAKNSLYLQMNSLRAEDTAVYYCARDVGGDYSGSDLASYWGQGTLVTVSS
# VL: B4 VL with G50A, Q91G, L93D, T94P
# notes: human IgG1
# B6: C-109 (antibody, V domains shown)
# VH: B5 VH
# VL: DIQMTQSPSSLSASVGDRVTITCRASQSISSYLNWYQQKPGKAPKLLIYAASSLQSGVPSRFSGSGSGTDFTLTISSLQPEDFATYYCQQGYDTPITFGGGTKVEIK
# notes: human IgG1
# B7: C-95 (antibody, V domains shown)
# VH: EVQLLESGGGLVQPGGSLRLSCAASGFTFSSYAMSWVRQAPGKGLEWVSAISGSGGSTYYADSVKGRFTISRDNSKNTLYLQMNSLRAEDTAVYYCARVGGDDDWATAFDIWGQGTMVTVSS
# VL: DIVMTQSPDSLAVSLGERATINCKSSQSVLYSSNNKNYLAWYQQKPGQAPRLLIYGASSRATGIPDRFSGSGSGTDFTLTISRLEPEDFAVYYCQQDYSSPLTFGGGTKVEIK
# notes: human IgG1
# B8: C-92 (antibody, V domains shown)
# VH: EVQLVESGGGLVKPGGSLRLSCAASGFTFSSYSMNWVRQAPGKGLEWVSSISSSSSYIYYADSVKGRFTISRDNAKNSLYLQMNSLRAEDTAVYYCARLGATATTDYAYGMDVWGQGTTVTVSS
# VL: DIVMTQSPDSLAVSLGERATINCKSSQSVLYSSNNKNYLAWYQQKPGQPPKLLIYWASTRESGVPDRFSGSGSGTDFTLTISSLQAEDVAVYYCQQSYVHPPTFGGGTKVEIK
# notes: human IgG1
# B9: C-9 (antibody, V domains shown)
# VH: QLQLQESGPGLVKPSETLSLTCTVSGGSISSSSYYWGWIRQPPGKGLEWIGSIYYSGSTYYNPSLKSRVTISVDTSKNQFSLKLSSVTAADTAVYYCARESGFAGLDPWGQGTLVTVSS
# VL: EIVLTQSPGTLSLSPGERATLSCRASQSVSSSFLAWYQQKPGQAPRLLIYGASSRATGIPDRFSGSGSGTDFTLTISRLEPEDFAVYYCQQSEDWPTFGGGTKVEIK
# notes: human IgG1
# B10: C-3 (antibody, V domains shown)
# VH: QVQLVQSGAEVKKPGSSVKVSCKASGGTFSNYAISWVRQAPGQGLEWMGGIIPIFGTANYAQKFQGRVTITADESTSTAYMELSSLRSEDTAVYYCARDTGTYVTGDGMDVWGQGTTVTVSS
# VL: EIVMTQSPATLSVSPGERATLSCRASQSVSSNLAWYQQKPGQAPRLLIYGASTRATGIPARFSGSGSGTEFTLTISSLQSEDFAVYYCQQYDVWPITFGGGTKVEIK
# notes: human IgG1
# Target: T2, human CD33 (human, UniProt P20138 18-364)
# Test: cell-based or functional assay
# T2 sequence (P20138 18-364): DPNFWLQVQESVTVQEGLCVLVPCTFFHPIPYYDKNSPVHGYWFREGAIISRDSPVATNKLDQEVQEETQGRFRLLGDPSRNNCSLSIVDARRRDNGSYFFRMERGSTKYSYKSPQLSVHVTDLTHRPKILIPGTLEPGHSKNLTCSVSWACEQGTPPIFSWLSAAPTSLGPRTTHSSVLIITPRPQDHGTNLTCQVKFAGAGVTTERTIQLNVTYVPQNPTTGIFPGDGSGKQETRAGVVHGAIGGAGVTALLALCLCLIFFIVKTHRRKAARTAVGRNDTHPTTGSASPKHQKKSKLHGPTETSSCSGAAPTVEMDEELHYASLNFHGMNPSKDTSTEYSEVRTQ
"Percent CD33 Surface Expression, DC % CD33 [%]","Percent CD33 Surface Expression, Macrophage % CD33 [%]","Percent CD33 Surface Expression, Monocyte % CD33 [%]",Binder
19.6,41.2,25.3,B1
42.1,87.3,51.9,B2
18.6,41.4,28.7,B3
18.5,41.3,35.4,B4
18.8,38.4,24.3,B5
30,38.9,31.1,B6
87.9,–,83,B7
73.9,–,79.2,B8
26,63.4,33.1,B9
27.9,63.5,29.1,B10

# Target: T1, mouse CD33 Fc fusion protein
# Test: ForteBio BLI or MSD-SET
row,binding result,Binder
1,no binding (tested: 100 nM),B1
2,no binding (tested: 100 nM),B2
3,no binding (tested: 100 nM),B3
4,no binding (tested: 100 nM),B4
5,no binding (tested: 100 nM),B5
6,no binding (tested: 100 nM),B6
7,no binding (tested: 100 nM),B7
8,no binding (tested: 100 nM),B8
9,no binding (tested: 100 nM),B9
10,no binding (tested: 100 nM),B10

# Target: T3, human CD33 Fc fusion protein (human, UniProt P20138 18-259)
# T3 construct: also called hCD33-Fc; human CD33/Fc chimera (R&D Systems)
# Test: ForteBio BLI or MSD-SET, IgG, avid;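 further: Anti-CD33 IgG affinity by BLI, IgG captured on AHQ sensors with antigen in solution and a one-to-one kinetic fit, or by MSD solution equilibrium titration with quadratic fit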
# Experimental: The binding affinity of each anti-CD33 antibody was determined by measuring their KD by ForteBio or MSD-SET. […] Briefly, ForteBio affinity measurements were performed by loading IgGs on-line onto AHQ sensors. Sensors were equilibrated off-line in assay buffer for 30 min and then monitored on-line for 60 seconds for baseline establishment. Sensors with loaded IgGs were exposed to 100 nM antigen for 5 minutes, then transferred to assay buffer for 5 min for off-rate measurement. Kinetics were analyzed using the 1:1 binding model.
# Solution equilibrium titrations (SET) were performed in PBS+0.1% IgG-Free BSA (PBSF) with antigen held constant at 50 pM and incubated with 3-to 5-fold serial dilutions of antibody starting at 10 nM. Antibodies (20 nM in PBS) were coated onto standard bind MSD-ECL plates overnight at 4° C. or at room temperature for 30 min. Plates were then blocked for 30 min with shaking at 700 rpm, followed by three washes with wash buffer (PBSF+0.05% Tween 20). SET samples were applied and incubated on the plates for 150s with shaking at 700 rpm followed by one wash. Antigen captured on a plate was detected with 250 ng/mL sulfotag-labeled streptavidin in PBSF by incubation on the plate for 3 min. The plates were washed three times with wash buffer and then read on the MSD Sector Imager 2400 instrument using 1× Read Buffer T with surfactant. The percent free antigen was plotted as a function of titrated antibody in Prism and fit to a quadratic equation to extract the KD. To improve throughput, liquid handling robots were used throughout MSD-SET experiments, including SET sample preparation.
# T3 sequence (P20138 18-259 limits assumed): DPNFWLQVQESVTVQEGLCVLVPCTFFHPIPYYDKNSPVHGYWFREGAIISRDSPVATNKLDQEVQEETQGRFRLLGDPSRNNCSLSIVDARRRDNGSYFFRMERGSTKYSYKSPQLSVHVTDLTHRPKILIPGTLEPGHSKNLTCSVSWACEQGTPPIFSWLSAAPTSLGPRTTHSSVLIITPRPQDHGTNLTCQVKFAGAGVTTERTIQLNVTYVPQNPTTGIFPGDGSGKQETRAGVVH
row,Kd [nM],Binder
1,1.16,B1
2,1.95,B2
3,0.734,B3
4,1.51,B4
5,1.2,B5
6,1.24,B6
7,9.65,B7
8,3.4,B8
9,1.09,B9
10,1.11,B10

# Target: T2, human CD33
# Test: flow cytometry, human primary T cells;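 further: binding of anti-CD33 antibodies at 10 ug/ml to human primary T cells, 1 h on ice, detected with PE-labelled secondary antibody, read as flow cytometry MFI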
row,T cell MFI,Binder
1,109,B1
2,193,B2
3,204,B3
4,329,B4
5,38.2,B5
6,247,B6
7,144,B7
8,42.3,B8
9,307,B9
10,262,B10

# Target: T2, human CD33
# Test: flow cytometry, human primary monocytes;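 further: binding of anti-CD33 antibodies at 10 ug/ml to human primary monocytes, 1 h on ice, detected by PE-labelled secondary antibody, flow cytometry readout as mean fluorescence intensity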
# Parameters: reference not given here
row,Monocyte MFI,Binder
1,1120,B1
2,204,B2
3,957,B3
4,987,B4
5,893,B5
6,867,B6
7,569,B7
8,918,B8
9,175,B9
10,109,B10

# Target: T2, human CD33
# Test: flow cytometry, human primary macrophages;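 further: binding of CD33 antibodies at 10 µg/ml to human primary macrophages, 1 h on ice, detected with PE-labelled secondary antibody by flow cytometry, reported as MFI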
# Experimental: Initial characterization of CD33 antibodies involved determining their ability to bind CD33 expressed on a CHO cell line, on human primary monocytes, human primary macrophages, human primary dendritic cells, and on human primary T cells. Cells were harvested, plated at 10⁶/ml in a 96 well plate, and incubated in 100 ul PBS containing 2% FBS, 2 mM EDTA and 10 ug/ml Mab and Fc blocking reagent for 1 hour in ice. Cells were washed twice and incubated in 100 ul PBS containing 2% FBS, 2 mM EDTA and 5 ug/ml PE-conjugated secondary antibody for 30 minutes on ice. Cells were washed twice in cold PBS and analyze by flow cytometry on a BD FACS Canto. Data analysis and calculation of MFI values was performed with FlowJo (TreeStar) software version 10.0.7.
row,Macrophage MFI,Binder
1,1420,B1
2,980,B2
3,1200,B3
4,1260,B4
5,1230,B5
6,1240,B6
7,369,B7
8,537,B8
9,886,B9
10,715,B10

# Target: T2, human CD33
# Test: flow cytometry, human primary dendritic cells;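 further: binding of anti-CD33 antibodies (10 ug/ml, 1 h on ice) to human primary dendritic cells, detected with a PE-labelled secondary antibody, reported as flow cytometry MFI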
row,DC MFI,Binder
1,203,B1
2,1370,B2
3,178,B3
4,151,B4
5,150,B5
6,164,B6
7,48,B7
8,107,B8
9,1700,B9
10,1520,B10

# Target: T4, human monomeric His tagged CD33 protein (human, UniProt P20138 18-259)
# T4 construct: also called hCD33-His
# Test: ForteBio BLI or MSD-SET, IgG, monomeric antigen;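 further: BLI: antibodies captured on AHQ sensors, 100 nM antigen association 5 min, dissociation 5 min, 1:1 fit. MSD-SET: antigen fixed at 50 pM, antibody titrated, quadratic fit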
# T4 sequence (P20138 18-259 limits assumed): as above
row,Kd [nM],Binder
1,4.88,B1
2,6.94,B2
3,2.7,B3
4,5.74,B4
5,4.26,B5
6,4.8,B6
7,71.5,B7
8,15.7,B8
9,4.17,B9
10,5.76,B10

# Target: T3, human CD33 Fc fusion protein
# Test: RBC adhesion to plate-bound CD33-Fc; antibody 0.5 ug/ml;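 further: Plate-coated CD33-Fc preincubated 1 h with antibody, then red blood cells added for 1 h at room temperature, adherent cells lysed and quantified via peroxidase activity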
row,Percent RBC Binding to CD33 [%],Binder
1,20.6,B1
2,12.7,B2
3,39.4,B3
4,17.2,B4
5,17.6,B5
6,17.6,B6
7,85,B7
8,98.5,B8
9,27.8,B9
10,14.5,B10

# Target: T3, human CD33 Fc fusion protein
# Test: RBC adhesion to plate-bound CD33-Fc; antibody 1.0 ug/ml;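 further: red blood cells adhering to plate-coated CD33-Fc after 1 h antibody pretreatment, then 1 h at room temperature, bound cells read as peroxidase activity after lysis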
row,Percent RBC Binding to CD33 [%],Binder
1,10.5,B1
2,12.7,B2
3,10.9,B3
4,6.8,B4
5,7,B5
6,8.3,B6
7,92.3,B7
8,76.2,B8
9,20,B9
10,9.8,B10
